“Also recorded” adds a separate entry of the source.
Legend:
[1] = tested on: Angiotensin II; assay: enzymatic activity of ACE2 truncates; format: biochemical
[2] = tested on: Angiotensin II; conditions: as disclosed in U.S. Pat. No. 10,443,049; cited from earlier work
[3] = tested on: hTCEpi cells; assay: RT-qPCR of inflammation-related genes in siACE2-transfected hTCEpi cells treated with losartan; format: cell-based; conditions: 100 μM losartan, 24 hours
Protocol: To examine if ACE2 deficiency-induced cytokine production is due to an increase in AngII activity, we investigated whether treatment of corneal epithelial cells with the AngII type 1 receptor (AT1R) antagonist, losartan could rescue the phenotype. hTCEpi deficient in ACE2 were treated with 100 μm losartan for 24 hrs and the cytokine response was evaluated.
Immortalized corneal epithelial cells, hTCEpi, were cultured in keratinocyte serum free media (Thermo Fisher Scientific, Waltham, Mass., USA) as described before^39. For siRNA knock-down experiments, cells were transfected with 10 nM siRNA SMARTpools against ACE2 and non-target control (GE Dharmacon, Colorado, USA) as previously described^37. Two days after transfection, cells were treated with losartan (100 μM) for 24 hours, and processed for total RNA isolation.
Total RNAs were isolated from hTCEpi cells and purified with a miRNeasy kit (Qiagen, Hilden, Germany). Real-time qPCR (RT-qPCR) was performed with a Roche LightCycler 96 System using the Roche FastStart Essential DNA Green Master (Roche, Branchburg, N.J., USA) according to the manufacturer's instructions.
Unpaired t-test were performed to determine statistical significance. The data are shown as means±standard deviation (SD). The differences were considered significant for p values of <0.05. All experiments were replicated at least three times.

[4] = duration of action in vivo after one injection (enzymatic activity in plasma, blood pressure); conditions: determined by enzymatic activity in plasma and by biologic response (blood pressure)
[5] = ACE2 activity in eyes of ACE2-knockout mice after topical corneal application; format: in vivo, mouse; conditions: ACE2-KO mice, after one hour; for ACE2 activity in eyes: topical to cornea, 5 μg/μl in PBS or in 0.5% DMSO in PBS, vs untreated
Protocol: ACE2 activity was assessed in eyes isolated from ACE2-deficient mice.

[6] = anti-ACE2 immunofluorescence of cornea of ACE2-KO mice after NaOH treatment and topical administration; format: in vivo, mouse; conditions: cornea treated with NaOH for 30 s, then topical administration
Protocol: The corneas of ACE2-KO mice were treated with NaOH for 30 s and then were topically administered ACE2 1-618-ABD. The cornea were subjected to immunofluorescence using anti-ACE2 antibodies. (See FIG. 13).

1-522: ACE2 truncate, amino acids 1-522, not enzymatically active [Group 1-522]
enzyme activity of ACE2 truncate [1]: not active

1-605: ACE2 truncate, amino acids 1-605, C-terminal deletion relative to SEQ ID NO:1 [Group 1-605]
enzyme activity of ACE2 truncate [1]: enzymatically active
enzymatic activity of ACE2 fragment [2]: very high enzymatic activity

1-618: ACE2 truncate, human ACE2 amino acids 1-618 [Group 1-618]
enzyme activity of ACE2 truncate [1]: enzymatically active

1-619: ACE2 truncate, amino acids 1-619, C-terminal deletion relative to SEQ ID NO:1 [Group 1-619]
enzyme activity of ACE2 truncate [1]: enzymatically active
enzymatic activity of ACE2 fragment [2]: very high enzymatic activity

CCCCc1nc(Cl)c(CO)n1Cc1ccc(-c2ccccc2-c2nn[nH]n2)cc1 [losartan]
pro-inflammatory activity / cytokine storm-like phenotype in ACE2 depleted corneal epithelial cells [3]: partially rescued
expression of CCL2 ([3]; RT-qPCR): decreased; also recorded: significantly blocked
expression of CXCL8 ([3]; RT-qPCR): only slightly altered
expression of IL1B ([3]; RT-qPCR): only slightly altered
expression of ILIA ([3]; RT-qPCR): decreased; also recorded: significantly blocked
expression of TNFA ([3]; RT-qPCR): decreased; also recorded: significantly blocked
pro-inflammatory activity / cytokine storm-like phenotype in ACE2 depleted corneal epithelial cells ([3]; listed as Losartan): partially reverse

ACE2 1-618ABD: human ACE2 amino acids 1-618 fused to albumin binding domain (ABDCon) via a GS4 linker
duration of action of one injection [4]: at least 4 days
effect of DMSO on detectable ACE2 activity in eyes ([5]; 5 μg/μl in 0.5% DMSO in PBS vs in PBS): enhance detectable ACE2 activity
ACE2 activity in eyes [5]: Detectable ACE2 activity was observed
ACE2 activity in eyes ([5]; listed as hr ACE2 1-618ABD): Recovery of ACE2 activity
ACE2 staining by immunofluorescence in the cornea [6]: Appearance of ACE2 staining
